This assay concerns the target HuCD7-TR (human CD7 containing an internal deletion of the 36 amino acid tandem repeat) (human) (UniProt P09564). The experiment in a line: HuK12-Fc on transfected COS-1 cells, 125I anti-human Fc, phosphorimager.

Chain of HuCD7-TR (human CD7 containing an internal deletion of the 36 amino acid tandem repeat) (human) (P09564 other isoform, or with tags, fused parts or gaps limits assumed): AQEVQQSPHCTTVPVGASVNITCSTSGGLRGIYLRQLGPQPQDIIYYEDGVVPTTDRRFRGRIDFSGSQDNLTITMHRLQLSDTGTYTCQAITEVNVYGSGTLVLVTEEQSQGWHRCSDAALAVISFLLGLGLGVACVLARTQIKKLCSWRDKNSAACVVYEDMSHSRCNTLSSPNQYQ

B1: human K12-Fc fusion protein (extracellular domain of human K12 fused to the Fc portion of human IgG1) (Fc fusion, not shown: a dimerising Fc or GST)
chain: QNEGWDSPICTEGVVSVSWGENTVMSCNISNAFSHVNIKLRAHGQESAIFNEVAPGYFSRDGWQLQVQGGVAQLVIKGARDSHAGLYMWHLVGHQRNNRQVTLEVSGAEPQSAPDTG
B1 registered a fold less relative binding than to full length HuCD7 of 10 fold.

For the origin of these results see US20020141999A1.
